According to patent US20220401560A1, “PEPTIDE ENCAPSULATING FERRITIN” (Ajinomoto Co., Inc., priority 2019, published 2022):
No end group written: not given here.

Tests used:
ferritin (FTH) [1] = biological target: T1, ferritin (FTH) (Homo sapiens, UniProt P02794); test: Encapsulation of fluorescent dye-modified peptide into FTH, column chromatography with absorbance at 480 nm and LC-MS
T1 construct: made in house; host or cells: Escherichia coli BL21 (DE3), plasmid pET20-FTH
Description: Of a 50 mM glycine hydrochloride buffer (pH 2.3) that contains FTH (chemical formula weight: 509,421) at a final concentration of 5 mg/mL and the peptide at a final concentration of 0.5 mM, 0.5 mL was left to stand at room temperature for 15 minutes. Next, 50 μL of a 1 M Tris hydrochloride buffer (pH 9.0) was added for neutralization, and the resulting solution was left to stand at room temperature for 3 hours. After the standing, the resulting solution was centrifuged (at 15,000 rpm for one minute). Then, the supernatant was collected and the volume was increased up to 3 mL with a 10 mM Tris hydrochloride buffer (pH 8). The resulting solution was injected into the HiPrep 26/60 Sephacryl S-300 HR column (GE Healthcare Inc.) equilibrated with a 10 mM Tris-HCl buffer (pH 8.0) to separate and purify 24-mer FTH by size at a flow rate of 1.3 mL/minute. The purified ferritin was analyzed using a HiPrep 16/60 Sephacryl S-300 HR column (GE Healthcare Inc.) equilibrated with a 10 mM Tris-HCl buffer (pH 8.0) at a flow rate of 0.5 mL/minute and confirmed as the absorbance at 480 nm unobservable from FTH only, at the same position as that of a peak of FTH.
The solution containing the FTH was concentrated to 0.25 mL by centrifugal ultrafiltration using Vivaspin 20-100K (GE Healthcare Inc.). […] For the LC-MS analysis, 50 μL of a 1 M glycine hydrochloride buffer (pH 2.3) was added to 50 μL of the sample solution and then the resulting solution was left to stand at room temperature for 15 minutes. To the solution 900 μL of ethanol was added. Next, the resulting solution was stirred vigorously and then centrifuged (at 15,000 rpm for five minutes) to collect its supernatant. The supernatant was analyzed using LCMS-2020 (Shimadzu Corporation) as LC-MS, inertsil (Registered trademark) ODS-3 with a particle diameter of 2 μm and 2.1 mm×50 mm (GL science) as a column. Into the column, 10 μL of the sample was injected, and eluded at a flow rate of 0.2 mL/min for 10 minutes such that a mixing ratio of a solution A (0.1% formic acid/99.9% acetonitrile) and a solution B (50% water/50% acetonitrile) was from 95:5 to 95:5. The concentration of the contained protein was determined using a protein assay CBB solution (Nacalai Tesque, Inc.) in terms of bovine albumin as a standard. The concentration of the encapsulated peptide was determined based on the absorbance at 480 nm of the fluorescent dye FAM to which PKC-F is modified.
First, the construction of FTH encapsulating two kinds of fluorescent dye-modified peptides [5(6)—FAM-[…] (SEQ ID NO: 10), FAM-SV40, chemical formula weight 1,516, and 5(6)—FAM-[…] […] (SEQ ID NO: 11), FAN-Np, chemical formula weight 384] was attempted. 0.5 mL of a 50 mM glycine hydrochloride buffer (pH 2.3) that contains FTH (chemical formula weight 509,421) at a final concentration of 5 mg/mL and a peptide at a final concentration of 0.5 mM, was left to stand at room temperature for 15 minutes. Next, 50 μL of a 1 M Tris hydrochloride buffer (pH 9.0) was added for neutralization, and the resulting solution was left to stand at room temperature for 3 hours. […] The absorbance at […] was confirmed at the same elusion position as that of ferritin 24-mer, for ferritin that was used for the operation to encapsulate FAM-SV40 therein. […] Next, the peptide amount of FAM-SV40 encapsulated in purified ferritin was quantified based on the 480 nm absorbance and by CBB staining with use of ferritin-amount-albumin as a standard.

SKBR-3 cell = test: Cell incorporation observed with two-photon excitation fluorescence microscope; type: cell-based, human; conditions: 24 hours, same conditions as FACS test
ferritin (FTL) = biological target: T2, ferritin (FTL) (Homo sapiens, UniProt P02792); test: Encapsulation of fluorescent dye-modified peptide into FTL, column chromatography with absorbance at 480 nm; conditions: absorbance at 480 nm at the position of the FTL peak
T2 construct: made in house; host or cells: Escherichia coli BL21 (DE3), plasmid pET20-FTL
T2 sequence (P02792 whole entry): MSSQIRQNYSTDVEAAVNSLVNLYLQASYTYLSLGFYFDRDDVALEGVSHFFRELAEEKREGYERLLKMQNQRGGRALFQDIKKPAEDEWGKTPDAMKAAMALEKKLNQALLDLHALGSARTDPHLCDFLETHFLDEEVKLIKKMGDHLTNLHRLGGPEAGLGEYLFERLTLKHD
Description: 0.5 mL of a 50 mM glycine hydrochloride buffer (pH 2.3) that contains FTL (chemical formula weight 480,466) at a final concentration of 5 mg/mL and the peptide at a final concentration of 0.5 mM, was left to stand at room temperature for 15 minutes. Next, 50 μL of a 1 M Tris hydrochloride buffer (pH 9.0) was added for neutralization, and the resulting solution was left to stand at room temperature for 3 hours. After the standing, the resulting solution was centrifuged (at 15,000 rpm for one minute). Then, the supernatant was collected and diluted with a 10 mM Tris hydrochloride buffer (pH 8) up to 3 mL in volume. The resulting solution was injected into the HiPrep 26/60 Sephacryl S-300 HR column (GE Healthcare Inc.) equilibrated with D-PBS (-) (Fujifilm Wako Pure Chemical Corporation) to separate and purify 24-mer FTL by size at a flow rate of 1.3 mL/minute. The purified ferritin was analyzed using a HIPrep 16/60 Sephacryl S-300 HR column (GE Healthcare Inc.) equilibrated with PBS at a flow rate of 0.5 mL/minute.

ferritin (FTH) [2] = biological target: T1, ferritin (FTH); test: Search for peptides capable of being encapsulated into ferritin by disassembly/reassembly process, LC-MS detection; conditions: encapsulation into ferritin (FTH); three trials
Description: Peptides capable of being encapsulated into ferritin by disassembly/reassembly process were searched. In the disassembly/reassembly process, 1 mL of a 50 mM glycine hydrochloride buffer (pH 2.3) containing FTH at a final concentration of 5 mg/mL and the peptide at a final concentration of 0.5 mM, was left to stand at room temperature for 15 minutes. Next, 310 μL of a 1 M Tris hydrochloride buffer (pH 9.0) was added for neutralization, and left to stand at room temperature for 3 hours. After the standing, 1.2 mL of a 50 mM Tris hydrochloride buffer (pH 8.0) was added, and centrifuged (at 15,000 rpm for one minute). Thereafter, 2.5 mL of its supernatant was injected into a desalting column PD-10 (Sephadex G-25 filled product, GE Healthcare Inc.) equilibrated with a 50 mM Tris hydrochloride buffer (pH 8) for the elusion with 3.0 mL of a 50 mM Tris hydrochloride buffer (pH 8.0) to separate non-encapsulated peptides and ferritin. A whole amount (3.0 mL) of the resulting solution was concentrated to 0.1 mL by centrifugal ultrafiltration using Vivaspin 20-100K (GE Healthcare Inc.). The operation of adding 10 mL of a 50 mM Tris hydrochloride buffer to the concentrated solution and then concentrating was repeated twice to remove peptides that were not removed by PD-10 to obtain 0.1 mL of a sample solution. For the LC-MS analysis, 50 p1 of a 1 M glycine hydrochloride buffer (pH 2.3) was added to 50 μL of the sample solution and then the resulting solution was left to stand at room temperature for 15 minutes. To the solution, 900 μL of ethanol was added. Next, the resulting solution was stirred vigorously and then centrifuged (at 15,000 rpm for five minutes) for collection of the supernatant. The supernatant was analyzed using LCMS-2020 (Shimadzu Corporation) as LC-MS, Inertsil (Registered trademark) as a column, ODS-3, particle diameter of 2 μm and 2.1 mm×50 mm (GL science). Thereafter, 10 μL of the sample injected into the column was eluded at a flow rate of 0.2 mL/min for 10 minutes such that a mixing ratio of a solution A (0.1% formic acid/99.9% acetonitrile) and a solution B (50% water/50% acetonitrile) is from 95:5 to 95:5.
The encapsulation of the peptide into ferritin was studied by comparing in terms of the amount of the peptide detected by LC/MS between the sample prepared by encapsulating the peptide into ferritin at the disassembly/reassembly process and the sample prepared simply by mixing ferritin with the peptide. For example, ClAc-FHC was eluted at a retention time of 0.8 minute. […] However, the peak was not observed for the sample prepared by simply mixing the peptide with ferritin without performing the disassembly/reassembly process (FIG. 12B). FIG. 13 to FIG. 17 illustrate LC-MS results for FTH in which the peptide was encapsulated at the disassembly/reassembly process.

T1 sequence (P02794 whole entry): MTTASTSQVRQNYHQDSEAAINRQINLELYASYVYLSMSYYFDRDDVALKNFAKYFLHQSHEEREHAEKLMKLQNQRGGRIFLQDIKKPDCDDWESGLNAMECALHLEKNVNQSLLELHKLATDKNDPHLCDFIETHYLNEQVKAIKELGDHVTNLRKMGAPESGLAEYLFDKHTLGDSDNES

5(6)-FAM-RFARKGALRQKNVHEVKN (SEQ ID NO: 9) ({5(6)‑FAM}-RFARKGALRQKNVHEVKN) [PKC-F, fluorescent dye fluorescein (FAM)-modified peptide, linear]
molecules of peptide encapsulated in one molecule of ferritin on average (ferritin (FTH) [1]; FTH, from molar ratio): 8.5 molecules
encapsulation of peptide in FTH (ferritin (FTH) [1]; absorbance at 480 nm at elution position of 24-mer FTH, LC-MS): encapsulated by the ferritin encapsulation operation without being decomposed
incorporation into cells, fluorescence at the interior of cells (SKBR-3 cell): not confirmed
encapsulation of peptide in FTL (ferritin (FTL)): encapsulated in FTL
encapsulation (ferritin (FTH) [2]): A (“A” represents peptides with three times of confirmation of encapsulation.)
